Experimental data published in patent US7799901B2, “Modulators of the function of FAS receptors and other proteins” (Yeda Research and Development Co. Ltd., priority 1995, dated 2010).
“Also recorded” adds a separate entry of the source.

Assays:
[1] = tested on: human embryonic kidney 293-EBNA cells; assay: Cell death on overexpression of MACH isoforms in 293-EBNA cells; format: cell-based; conditions: β-galactosidase-expressing cells with apoptopic morphology, 20 h after transfection
Experimental: To explore the involvement of MACH in cell-death induction, the effect of overexpression of various MACH isoforms on cell viability was examined. The test was performed by transfecting MACH expression vectors together with a β-galactosidase expression vector as a transfection marker into human embryonic kidney 293-EBNA cells and breast carcinoma MCF7 cells.
In brief, 293-EBNA cells, MCF7 human breast carcinoma cells and HeLa HtTA-1 cells were grown in Dulbecco's modified Eagle's minimal essential medium supplemented with 10% fetal calf serum, nonessential amino acids, 100 U/ml penicillin and 100 μg/ml streptomycin. Cell tissue culture dishes (5×10^5 293-EBNA cells, 3×10^5 s MCF7 cells or 3×10^5 HeLa cells in 6-cm dishes) were transiently transfected, using the calcium phosphate precipitation method, with the cDNAs of the indicated proteins together with the β-galactosidase expression vector. In the experiments presented in FIGS. 14A-D and 15, each dish was transfected with 3.5 μg of the indicated MACH construct and 1.5 μg of pSV-β-gal. In the experiments presented in FIGS. 16A-D and 17-19, each dish was transfected with 2.5 μg of the indicated MACH or MORT1 construct (or, as control, empty vector) and 1.5 μg of pSV-β-gal. The cells were rinsed 6 to 10 h after transfection. The 293-EBNA and MCF7 cells were incubated for a further 18 h without additional treatment. The HeLa cells were incubated for 26 h after transfection and-then for 5 h in the presence of either anti-Fas.APO1 antibody (CH11, 0.5 μg/ml) or TNF (100 ng/ml), together with cycloheximide (10 μg/ml). The extent of cell death at the end of the incubation periods was assessed by determination of β-galactosidase expression, as described by Kumar et al, 1994.
In particular, FIGS. 14A-D show the morphology of human embryonic kidney 293-EBNA cells transiently expressing the indicated MACH isoforms. The arrows (FIG. 14B) point to apoptopic cells. Photographs were taken 26 h after transfection. […] Data are from three independent experiments with the 293-EBNA cells and two independent experiments with the MCF7 cells.

[2] = biological target: T1, MORT1 (Homo sapiens, UniProt Q13158); assay: Co-immunoprecipitation with co-expressed MORT1 from HeLa cell lysates; format: binding; parameters: expressed in transfected cells; host or cells: HeLa cells; conditions: HeLa cells; FLAG-tagged MACH, HA-tagged MORT1
T1 sequence (Q13158 1-208): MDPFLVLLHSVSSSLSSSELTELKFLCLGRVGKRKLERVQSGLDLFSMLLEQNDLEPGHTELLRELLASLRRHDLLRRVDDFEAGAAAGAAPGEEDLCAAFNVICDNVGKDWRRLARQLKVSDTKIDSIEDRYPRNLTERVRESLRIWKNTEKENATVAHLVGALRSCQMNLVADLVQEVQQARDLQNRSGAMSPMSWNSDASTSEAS
Source text: It has been shown also to contribute to, though not to suffice in, the self association of MORT-1 (see Example 1). […] To further assess the involvement of the MORT modules in these interactions, deletion mutants of MACHβ1, fused with the FLAG octapeptide (FLAG-MACHβ1), were expressed in HeLa cells and assessed for their binding in vitro to bacterial-produced […] fusion protein (GST-MORT-1). […] FIGS. 9A and 9B show the results (autoradiograms) of the in vitro interaction of MACHβ1 and its deletion mutants with MORT-1. Briefly, 35 [S] metabolically labeled MACHβ1, MACHβ1 fused at its N-terminus to the FLAG octapeptide (FLAG-MACHβ1), C-terminus truncation mutants of FLAG-MACHβ1, and, as a control, luciferase, were produced in transfected HeLa cells. […]
Testing further if MACHα1 can bind to MORT1 also within mammalian cells, MACHα1 or MACHβ1, fused with the FLAG octapeptide was expressed, together with HA epitope-tagged MORT1 molecules. ^35[S] metabolically labeled MACHα1 and MACHβ1 fused at their N-termini to the FLAG octapeptide (FLAG-MACHα1 and β1), and MORT1 fused at its N terminus to the HA epitope (Field et al, 1988) were expressed in HeLa cells. […] The proteins were analyzed by SDS-polyacrylamide gel electrophoresis (12% acrylamide), followed by autoradiography. […]

MACHα1: MACH isoform, cDNA SEQ ID NO: 14, amino acid SEQ ID NO: 7; contains CED3/ICE homology region
cell death of transfected 293-EBNA cells [1]: massive cell death | binding to co-expressed MORT1 (co-immunoprecipitation) [2]: co-immunoprecipitated

B1: MACHβ1: MACH isoform, cDNA SEQ ID NO: 4, amino acid SEQ ID NO: 5; lacks the CED3/ICE homology region (protein)
chain: MDFSRNLYDIGEQLDSEDLASLKFLSLDYIPQRKQEPIKDALMLFQRLQEKRMLEESNLSFLKELLFRINRLDLLITYLNTRKEEMERELQTPGRAQISAYRVMLYQISEEVSRSELRSFKFLLQEEISKCKLDDDMNLLDIFIEMEKRVILGEGKLDILKRVCAQINKSLLKIINDYEEFSKERSSSLEGSPDEFSNDFGQSLPNEKQTSGILSDHQQSQFCKSTGESAQTSQH
cell death of transfected 293-EBNA cells [1]: some slight cell death | binding to co-expressed MORT1 (co-immunoprecipitation) [2]: bound; also recorded: co-immunoprecipitated

B2: MACHα1 (C360S): MACHα1 mutant in which the catalytic cysteine Cys360 is replaced by Ser (protein)
chain: MDFSRNLYDIGEQLDSEDLASLKFLSLDYIPQRKQEPIKDALMLFQRLQEKRMLEESNLSFLKELLFRINRLDLLITYLNTRKEEMERELQTPGRAQISAYRVMLYQISEEVSRSELRSFKFLLQEEISKCKLDDDMNLLDIFIEMEKRVILGEGKLDILKRVCAQINKSLLKIINDYEEFSKERSSSLEGSPDEFSNGEELCGVMTISDSPREQDSESQTLDKVYQMKSKPRGYCLIINNHNFAKAREKVPKLHSIRDRNGTHLDAGALTTTFEELHFEIKPHDDCTVEQIYEILKIYQLMDHSNMDCFICCILSHGDKGIIYGTDGQEAPIYELTSQFTGLKCPSLAGKPKVFFIQASQGDNYQKGIPVETDSEEQPYLEMDLSSPQTRYIPDEADFLLGMATVNNCVSYRNPAEGTWYIQSLCQSLRERCPRGDDILTILTEVNYEVSNKDDKKNMGKQMPQPTFTLRKKLVFPSD
cell death of transfected 293-EBNA cells [1]: No death
